Molecular target: T1, human neonatal Fc-receptor (FcRn) (human, UniProt P55899 24-297; P61769 21-119)
T1 construct: also called human FcRn; huFcRn
Test: symmetric HHY-AAA mutation

T1 sequence (P55899 24-297 limits assumed, chain 1 of 2): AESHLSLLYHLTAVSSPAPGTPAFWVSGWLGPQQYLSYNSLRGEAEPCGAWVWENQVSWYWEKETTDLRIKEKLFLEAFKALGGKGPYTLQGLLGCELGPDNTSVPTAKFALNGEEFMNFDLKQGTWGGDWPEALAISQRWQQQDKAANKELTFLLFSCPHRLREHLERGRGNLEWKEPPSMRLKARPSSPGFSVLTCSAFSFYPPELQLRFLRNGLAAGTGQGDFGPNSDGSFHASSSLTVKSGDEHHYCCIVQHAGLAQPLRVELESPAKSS
T1 sequence (P61769 21-119 limits assumed, chain 2 of 2): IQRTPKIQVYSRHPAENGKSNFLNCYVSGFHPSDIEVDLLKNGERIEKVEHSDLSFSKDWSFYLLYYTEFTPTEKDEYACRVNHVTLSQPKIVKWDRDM

B1: IGF-1R 0045 (antibody, human IgG1, kappa)
light: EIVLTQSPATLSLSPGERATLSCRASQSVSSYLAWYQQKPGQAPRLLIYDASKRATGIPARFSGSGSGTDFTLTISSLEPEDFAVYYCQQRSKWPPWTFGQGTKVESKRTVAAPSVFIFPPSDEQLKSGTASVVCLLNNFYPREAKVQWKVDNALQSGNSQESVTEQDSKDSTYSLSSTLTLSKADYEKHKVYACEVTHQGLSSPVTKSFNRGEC
heavy: QVELVESGGGVVQPGRSQRLSCAASGFTFSSYGMHWVRQAPGKGLEWVAIIWFDGSSTYYADSVRGRFTISRDNSKNTLYLQMNSLRAEDTAVYFCARELGRRYFDLWGRGTLVSVSSASTKGPSVFPLAPSSKSTSGGTAALGCLVKDYFPEPVTVSWNSGALTSGVHTFPAVLQSSGLYSLSSVVTVPSSSLGTQTYICNVNHKPSNTKVDKKVEPKSCDKTHTCPPCPAPELLGGPSVFLFPPKPKDTLMISRTPEVTCVVVDVSHEDPEVKFNWYVDGVEVHNAKTKPREEQYNSTYRVVSVLTVLAQDWLNGKEYKCKVSNKALPAPIEKTISKAKGQPREPQVYTLPPSRDELTKNQVSLTCLVKGFYPSDIAVEWESNGQPENNYKTTPPVLDSDGSFFLYSKLTVDKSRWQQGNVFSCSVMHEALANHATQKSLSLSPG
notes: Roles inferred; also called <IGF-1R> IgG1 with H310A, H433A, Y436A; anti-IGF-1R IgG1 with HHY-AAA mutation
binding result: no binding
